Source: patent US12077763B2, “RNA-based control of powdery mildew” (Greenlight Biosciences, Inc., priority 2021, dated 2024)

B1: GS1893: dsRNA trigger SEQ ID NO 124; gene target C2H2 zinc finger domain (nucleic acid)
chain: CACAACCTTGGGTCTGTCCTTAATTTTTCCACCAAATAATCAATCCTACGACCATTGCGTGGGACAATAATTCAATAAGGAAAATTTAAATAAAAAAAAATTTAAAAAAAAAGAAAAAGAAAAAATTTAATTAAAATCCATAATAAATACTCTGTTAATATTTACAAGGGAATCTTAATTATTCAACCAACCAATTATCTCGGAAAAGGATAAAGGAGTTGGTTTACATCTAACGATTAGAAAGCCTTTGAACCTAGTATGCCCAATTCTCTTCATATGGATACCCAGTTTCACTCAAACAATATGAATAGCAGTACAGCGAATTATAGTTCATTGCCTAGCATTTCGCCTCATCAACTGCAGCAGCAAAATCAAATGCCGACTCATATTCT
B2: GS1890: dsRNA trigger SEQ ID NO 154; gene target Pre-rRNA-processing protein FHL1 (nucleic acid)
chain: TAAAGGAATTGAAGGAGGAAAATTTGATGATGGATTGATAACAGACGGTACTTGCCCATTTATACGAGGTGGTAGCTGATAATTTGAAAAGTGACCTAATTGATTATGTGAAGATTCCATCGGGGCCCTGTACGTAAAGTGGCCTGCTATCTTTGAGAGACCATTTTGATAAGGAGTTTGTTGCAGACCTAGATAAGATTGAGGAGGCGGAGTAGCTCTCCTTTTTTTCTCTTTTTCAATAGATATACCGTCAACGATTCCCCAAGTCCAGCCTTTTCCATCCTTTTCAACTTTGCGGAAAGCATGGTGTTGTGATAGATTGTGACGAACACTACTTTGCCAGCCTAAGGTTTGAGTTTTAAATCTGAAATATGGGTATTTCCTGTATATAGCTCGGTAGATGT
B3: GS1892: dsRNA trigger SEQ ID NO 148; gene target COP9 signalosome complex subunit 5 (nucleic acid)
chain: CGAGCTCTTATAGTGTGAGATCTGCAGCGAGTAGTATCTACTACTATGGGCACCGAAATCTTCGATCTTAGATAGTGGTATCGTTTGATAACCATCGTTAGTTGACGATTCTGCCGCCTTGTAGTTTTCTGGATAGGTCCGGAATGCACCTATTTCAACCTTACCAGCTGAGATGGTGCGATCTGGGTCAATGACAACCGCAAGAAAAGGATCCGAGAATGATTGCTGTATATGCTGTGTGCTAACATCTATGCCACTGAGCCAGCAGCCATAGCCTGGATGACTGTGGTACCACCCCACTGCATTCTCTAACTTTCCTTGCTCTCGACATGCCTGGAGATAACGAACCATATATTCATTTGCCTCATCTTGGGCATTAACACGTGTCTCCGTGCCTTC
B4: GS1891: dsRNA trigger SEQ ID NO 122; gene target eka-like_protein (nucleic acid)
chain: CACCAACTGGGTGTCAGTACTAATACCAACAGTTCCAGCTGTTTTACATAAAGAACAAGGAGTAGTTGAAGTGAGCAACAGCATGCTTGCTGATGAGGTGGAACGTGTCTGCTCTGTGCGGCCAGCTCACATAAAGCTTTATGGAAGAAATAAACCTGAGGCACCGTATCGAACATGGATGGCTTTCTTCCCGAAAGCTCCACGCGGCACTTTTAAAGTGTTCGACGAATCTGGAATTGCGAGCGAGGTCTTTTAAAAAGCAGCAACCTCTCGAATTTTGTAAAAGATGCAATGGGCACCACTCTATTAAAAATTGCTCAAGGGCTCCTTCGTGCGGAAATTGTGGCTCGACCAATCATACCGAGGATTTATGTATGGCCGCAACTAAGTGTAGAAATTGTGG

Tested on: E. necator
Test: Leaf disc assay, dry inoculum (settling tower), decrease in disease severity / hyphal growth (Example 2)
Conditions: decrease in disease severity (hyphal growth) relative to untreated control; time point 1 (untreated control hyphal growth ≥50%); value ± SE

Molecule	% decrease =/− SE TP1
B1	5 ± 5%
B2	16 ± 5%
B3	8 ± 5%
B4	3 ± 7%

Same assay, conditions: decrease in disease severity (hyphal growth) relative to untreated control; time point 2; value ± SE

Molecule	% decrease =/− SE TP2
B2	4 ± 5%
B3	3 ± 6%
B4	4 ± 7%
